Reference: US20150258192A1, “COMPOSITIONS AND METHODS FOR PREVENTING OR TREATING CHRONIC LUNG ALLOGRAFT DYSFUNCTION (CLAD) AND IDIOPATHIC PULMONARY FIBROSIS (IPF)” (priority 2014, published 2015)
No end group written: not given here.

Columns and labels:
Assay in all cases: Kinase Profiling Assay
Format in all cases: biochemical
Details in all cases: peptide 100 μM
SGK2(h) = target: T1, SGK2(h) (Homo sapiens, UniProt Q9HBY8)
T1 construct: purchased Millipore
T1 sequence (Q9HBY8 1-367): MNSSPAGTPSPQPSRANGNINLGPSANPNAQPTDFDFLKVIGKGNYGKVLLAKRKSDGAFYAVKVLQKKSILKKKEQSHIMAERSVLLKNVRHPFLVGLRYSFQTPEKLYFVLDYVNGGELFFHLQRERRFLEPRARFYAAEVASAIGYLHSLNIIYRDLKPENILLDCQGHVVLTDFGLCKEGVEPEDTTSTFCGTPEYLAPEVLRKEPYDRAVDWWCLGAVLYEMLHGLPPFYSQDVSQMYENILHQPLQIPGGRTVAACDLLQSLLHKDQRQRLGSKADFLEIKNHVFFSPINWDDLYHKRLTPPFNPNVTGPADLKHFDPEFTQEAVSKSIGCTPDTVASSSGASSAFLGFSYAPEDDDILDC
Outline: (§1)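 Measured twice per kinase, activity in presence of MK2 inhibitory peptide was calculated against a 100% activity control after radiometric phosphorylation of a cationic substrate, anionic filter capture and scintillation counting; one of 266 human kinases profiled for specificity.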

MSSK1(h) = target: T2, MSSK1(h) (Homo sapiens, UniProt Q9UPE1)
T2 construct: purchased Millipore
Outline: as §1

Abl(Q252H)(h) = Abl(Q252H)(h) (Homo sapiens, UniProt P00519, Q252H)
Outline: as §1

IKKβ(h) = target: T3, IKKβ(h) (Homo sapiens, UniProt O14920)
T3 construct: purchased Millipore
T3 sequence (O14920 1-756): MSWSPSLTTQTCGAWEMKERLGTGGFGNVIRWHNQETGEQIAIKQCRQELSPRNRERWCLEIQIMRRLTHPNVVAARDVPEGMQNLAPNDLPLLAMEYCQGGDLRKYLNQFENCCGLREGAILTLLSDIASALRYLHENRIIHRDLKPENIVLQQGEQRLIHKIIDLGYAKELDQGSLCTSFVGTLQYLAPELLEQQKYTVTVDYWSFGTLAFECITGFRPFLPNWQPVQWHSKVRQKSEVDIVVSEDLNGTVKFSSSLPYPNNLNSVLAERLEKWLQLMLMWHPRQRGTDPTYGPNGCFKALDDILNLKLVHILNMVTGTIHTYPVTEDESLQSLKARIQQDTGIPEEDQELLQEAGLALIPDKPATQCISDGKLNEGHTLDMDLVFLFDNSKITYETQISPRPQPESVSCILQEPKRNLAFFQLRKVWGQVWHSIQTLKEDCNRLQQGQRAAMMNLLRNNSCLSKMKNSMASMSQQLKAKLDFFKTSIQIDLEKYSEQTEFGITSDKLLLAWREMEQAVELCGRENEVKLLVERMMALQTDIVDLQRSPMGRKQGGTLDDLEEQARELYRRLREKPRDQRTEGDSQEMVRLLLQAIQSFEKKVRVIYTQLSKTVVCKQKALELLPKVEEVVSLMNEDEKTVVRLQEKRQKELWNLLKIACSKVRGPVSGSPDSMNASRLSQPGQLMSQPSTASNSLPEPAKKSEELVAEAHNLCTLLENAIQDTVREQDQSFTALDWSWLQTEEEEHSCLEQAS
Outline: as §1

MST3(h) = target: T4, MST3(h) (Homo sapiens, UniProt Q9Y6E0)
T4 construct: purchased Millipore
Outline: as §1

Ron(h) = Ron(h) (Homo sapiens, UniProt Q04912)
Outline: as §1

PrKX(h) = target: T5, PrKX(h) (Homo sapiens, UniProt P51817)
T5 sequence (P51817 1-358): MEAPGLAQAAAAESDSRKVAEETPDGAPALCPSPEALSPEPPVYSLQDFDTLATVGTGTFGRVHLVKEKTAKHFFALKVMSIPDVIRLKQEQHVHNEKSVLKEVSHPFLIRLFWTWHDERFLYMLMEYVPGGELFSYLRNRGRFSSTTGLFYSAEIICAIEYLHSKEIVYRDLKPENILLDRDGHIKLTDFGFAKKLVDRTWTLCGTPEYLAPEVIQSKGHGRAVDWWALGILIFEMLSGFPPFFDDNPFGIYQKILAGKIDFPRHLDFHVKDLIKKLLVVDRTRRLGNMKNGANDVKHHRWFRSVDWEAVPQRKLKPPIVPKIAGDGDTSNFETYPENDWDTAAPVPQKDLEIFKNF
Outline: as §1

Rsk3(h) = target: T6, Rsk3(h) (Homo sapiens, UniProt Q15349)
T6 construct: purchased Millipore
Outline: as §1

PDGFRβ(h) = PDGFRβ(h) (Homo sapiens, UniProt P09619)
Outline: as §1

IR(h) = target: T7, IR(h) (Homo sapiens, UniProt P06213)
T7 construct: purchased Millipore
Outline: as §1

Syk(h) = target: T8, Syk(h) (Homo sapiens, UniProt P43405)
T8 construct: purchased Millipore
Outline: as §1

PKCδ(h) = PKCδ(h) (Homo sapiens, UniProt Q05655)
Outline: as §1

Chain of PKCδ(h) (Q05655 whole entry): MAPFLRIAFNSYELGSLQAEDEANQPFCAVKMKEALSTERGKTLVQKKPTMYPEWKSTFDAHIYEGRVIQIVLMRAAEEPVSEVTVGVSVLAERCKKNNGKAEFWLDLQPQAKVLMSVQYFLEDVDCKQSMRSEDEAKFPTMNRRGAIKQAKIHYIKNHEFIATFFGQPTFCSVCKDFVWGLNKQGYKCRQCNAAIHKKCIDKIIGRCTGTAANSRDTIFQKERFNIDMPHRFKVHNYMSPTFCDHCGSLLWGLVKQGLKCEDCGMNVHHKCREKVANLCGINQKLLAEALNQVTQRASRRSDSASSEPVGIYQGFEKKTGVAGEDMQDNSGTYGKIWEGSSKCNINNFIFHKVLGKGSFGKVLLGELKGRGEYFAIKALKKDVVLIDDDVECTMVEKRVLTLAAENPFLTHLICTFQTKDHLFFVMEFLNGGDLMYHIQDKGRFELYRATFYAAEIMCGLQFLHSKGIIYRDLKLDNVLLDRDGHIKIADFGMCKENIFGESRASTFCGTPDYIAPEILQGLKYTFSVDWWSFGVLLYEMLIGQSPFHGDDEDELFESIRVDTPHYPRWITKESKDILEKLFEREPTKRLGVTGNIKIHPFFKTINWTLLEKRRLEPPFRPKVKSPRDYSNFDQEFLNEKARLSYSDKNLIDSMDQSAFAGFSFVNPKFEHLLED
T2 sequence (Q9UPE1 whole entry): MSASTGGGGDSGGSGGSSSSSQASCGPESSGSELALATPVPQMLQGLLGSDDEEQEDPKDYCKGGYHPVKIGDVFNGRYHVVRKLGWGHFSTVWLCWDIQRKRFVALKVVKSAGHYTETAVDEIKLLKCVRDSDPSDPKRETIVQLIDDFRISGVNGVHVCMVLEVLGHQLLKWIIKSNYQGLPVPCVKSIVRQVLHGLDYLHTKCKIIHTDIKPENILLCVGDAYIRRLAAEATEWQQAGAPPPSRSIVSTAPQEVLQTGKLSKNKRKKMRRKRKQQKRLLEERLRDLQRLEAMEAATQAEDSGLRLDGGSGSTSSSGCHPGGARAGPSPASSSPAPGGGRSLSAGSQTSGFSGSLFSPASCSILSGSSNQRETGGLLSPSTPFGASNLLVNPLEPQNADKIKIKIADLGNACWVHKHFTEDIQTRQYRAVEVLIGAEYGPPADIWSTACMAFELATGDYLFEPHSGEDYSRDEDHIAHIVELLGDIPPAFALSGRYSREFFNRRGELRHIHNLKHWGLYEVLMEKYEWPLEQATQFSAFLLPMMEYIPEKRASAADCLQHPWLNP
Chain of PDGFRβ(h) (P09619 33-1106): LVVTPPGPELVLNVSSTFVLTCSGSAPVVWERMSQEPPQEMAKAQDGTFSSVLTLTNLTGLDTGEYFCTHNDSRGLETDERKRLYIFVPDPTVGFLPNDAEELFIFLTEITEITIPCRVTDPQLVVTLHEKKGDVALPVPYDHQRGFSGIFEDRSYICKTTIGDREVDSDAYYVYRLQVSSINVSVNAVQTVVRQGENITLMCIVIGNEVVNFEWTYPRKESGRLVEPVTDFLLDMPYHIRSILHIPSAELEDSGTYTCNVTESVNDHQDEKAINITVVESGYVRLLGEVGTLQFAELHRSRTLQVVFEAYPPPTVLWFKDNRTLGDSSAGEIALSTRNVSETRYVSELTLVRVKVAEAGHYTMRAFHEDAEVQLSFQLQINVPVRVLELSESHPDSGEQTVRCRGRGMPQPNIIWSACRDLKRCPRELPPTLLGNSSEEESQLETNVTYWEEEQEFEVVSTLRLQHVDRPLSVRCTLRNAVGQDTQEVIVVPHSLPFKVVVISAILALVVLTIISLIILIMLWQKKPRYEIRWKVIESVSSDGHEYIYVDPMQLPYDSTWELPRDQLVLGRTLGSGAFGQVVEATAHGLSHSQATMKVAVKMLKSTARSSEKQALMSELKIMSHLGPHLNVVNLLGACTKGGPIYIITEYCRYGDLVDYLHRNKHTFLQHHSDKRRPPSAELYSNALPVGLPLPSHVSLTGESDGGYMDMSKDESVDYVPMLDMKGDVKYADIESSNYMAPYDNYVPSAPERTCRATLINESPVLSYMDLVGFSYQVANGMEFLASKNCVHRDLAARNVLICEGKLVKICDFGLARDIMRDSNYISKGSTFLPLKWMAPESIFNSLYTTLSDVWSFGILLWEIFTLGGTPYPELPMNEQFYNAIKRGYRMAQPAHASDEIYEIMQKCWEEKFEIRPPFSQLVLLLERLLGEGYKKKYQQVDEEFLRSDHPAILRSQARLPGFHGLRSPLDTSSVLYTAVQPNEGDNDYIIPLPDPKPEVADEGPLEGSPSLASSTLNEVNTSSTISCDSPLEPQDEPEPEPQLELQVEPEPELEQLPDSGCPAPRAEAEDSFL
T4 sequence (Q9Y6E0 whole entry): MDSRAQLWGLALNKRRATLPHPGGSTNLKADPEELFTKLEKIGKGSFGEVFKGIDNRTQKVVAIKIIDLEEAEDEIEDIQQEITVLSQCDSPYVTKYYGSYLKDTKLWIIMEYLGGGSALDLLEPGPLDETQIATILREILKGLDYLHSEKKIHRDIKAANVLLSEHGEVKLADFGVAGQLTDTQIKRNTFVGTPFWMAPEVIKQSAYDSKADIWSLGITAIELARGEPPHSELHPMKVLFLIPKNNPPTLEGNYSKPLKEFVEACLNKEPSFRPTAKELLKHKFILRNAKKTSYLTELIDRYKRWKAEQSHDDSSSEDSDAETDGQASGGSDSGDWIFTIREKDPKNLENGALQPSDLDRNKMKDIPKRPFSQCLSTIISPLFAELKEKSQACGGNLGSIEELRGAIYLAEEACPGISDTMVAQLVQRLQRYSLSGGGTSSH
T6 sequence (Q15349 whole entry): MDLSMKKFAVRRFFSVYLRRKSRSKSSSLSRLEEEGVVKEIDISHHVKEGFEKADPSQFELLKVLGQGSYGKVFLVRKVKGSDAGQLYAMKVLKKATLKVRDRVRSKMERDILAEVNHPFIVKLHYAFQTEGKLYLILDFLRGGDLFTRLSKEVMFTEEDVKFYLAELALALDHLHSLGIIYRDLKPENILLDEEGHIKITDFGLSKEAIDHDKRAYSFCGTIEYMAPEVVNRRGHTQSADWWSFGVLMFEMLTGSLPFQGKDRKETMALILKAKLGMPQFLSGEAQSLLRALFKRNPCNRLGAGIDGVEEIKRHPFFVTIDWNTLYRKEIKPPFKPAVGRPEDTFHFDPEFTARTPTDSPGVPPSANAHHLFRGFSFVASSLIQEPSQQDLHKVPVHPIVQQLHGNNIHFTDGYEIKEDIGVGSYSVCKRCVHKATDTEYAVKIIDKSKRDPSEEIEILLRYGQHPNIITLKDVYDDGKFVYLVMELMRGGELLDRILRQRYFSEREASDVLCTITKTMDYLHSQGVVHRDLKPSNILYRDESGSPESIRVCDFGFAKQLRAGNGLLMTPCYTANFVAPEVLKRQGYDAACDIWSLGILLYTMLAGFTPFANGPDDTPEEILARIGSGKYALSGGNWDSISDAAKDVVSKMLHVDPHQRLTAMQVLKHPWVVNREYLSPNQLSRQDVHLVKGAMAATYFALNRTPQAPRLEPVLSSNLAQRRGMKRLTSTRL

| Sequence | % activity (SGK2(h)) [%] | % activity (MSSK1(h)) [%] | % activity (Abl(Q252H)(h)) [%] | % activity (IKKβ(h)) [%] | % activity (MST3(h)) [%] | % activity (Ron(h)) [%] | % activity (PrKX(h)) [%] | % activity (Rsk3(h)) [%] | % activity (PDGFRβ(h)) [%] | % activity (IR(h)) [%] | % activity (Syk(h)) [%] | % activity (PKCδ(h)) [%] |
| --- | --- | --- | --- | --- | --- | --- | --- | --- | --- | --- | --- | --- |
| FAKLAARLYRKALARQLGVAA [MMI-0300] | 56 | 77 | 82 | 84 | 45 | 93 | 61 | 76 | 81 | 96 | 24 | 101 |
| HRRIKAWLKKIKALARQLGVAA (Mammal) [MMI-0500] | -1 | 22 | 40 | 71 | 4 | 46 | 57 | 23 | 40 | 95 | 5 | 61 |
| KAFAKLAARLYRKALARQLGVAA [MMI-0400] | 98 | 75 | 98 | 84 | 36 | 79 | 76 | 71 | 53 | 85 | 9 | 90 |
| YARAAARQARAKALARQLGVAA [MMI-0100] | – | 82 | – | – | – | – | 84 | – | – | – | – | – |
| YARAAARQARAKALNRQLGVA (Mammal) [MMI-0200] | – | 100 | – | – | 95 | 120 | – | – | 137 | 90 | 36 | 101 |
